Measured values: article PMC12340436
pKd: −log10 of the molar value.

What was measured:
Assay in all cases: EMSA
[1] = test system: RhsP2tox WT (Pseudomonas aeruginosa PA14)
[2] = target: RhsP2tox K1564E K1564E (Pseudomonas aeruginosa PA14) (UniProt A0A0H2Z8A2)
[3] = target: RhsP2tox K1567E K1567E (Pseudomonas aeruginosa PA14) (UniProt A0A0H2Z8A2)
[4] = target: RhsP2tox K1574E K1574E (Pseudomonas aeruginosa PA14) (UniProt A0A0H2Z8A2)
[5] = target: RhsP2tox K1579E K1579E (Pseudomonas aeruginosa PA14) (UniProt A0A0H2Z8A2)
[6] = target: RhsP2tox K1580E K1580E (Pseudomonas aeruginosa PA14) (UniProt A0A0H2Z8A2)
[7] = target: RhsP2tox R1563E R1563E (Pseudomonas aeruginosa PA14) (UniProt A0A0H2Z8A2)
[8] = target: RhsP2tox WT (Pseudomonas aeruginosa PA14) (UniProt A0A0H2Z8A2)

CsrB sRNA
pKd [1]: 6.17

GGGACCGGCGCAGAGGAGACAAUGCCGGAUUUAAGACGCGGAUGCACUGCUGUGUGUACUGUAGAGUCUGGCGGAUGUCGACAGACUCUAUUUUUUU [McaS sRNA]
binding [2]: binds more weakly
binding [3]: binds more weakly
binding [4]: no binding
binding [5]: binds more weakly
binding [6]: binds more weakly
binding [7]: binds more weakly
pKd [8]: 5.16

McaS sRNA
pKd [1]: 5.16

synthetic 50-nt RNA
pKd [1]: 5.66
